Consider three molecules from US20220324971A1 (AKESO BIOPHARMA, published 2022).

Assay [1] has as its target T1, CD47 on the cell membrane surface of human cells (normal human RBCs, Raji, LOVO) (human, UniProt Q08722 19-323).
T1 construct: whole, on cells; also called CD47 on the cell membrane surface of normal human RBCs; CD47 on the cell membrane surface of Raji cells
The experiment in a line: flow cytometry on human RBCs. (Flow cytometry measures light scatter and fluorescence of single cells or particles in a stream.)
Experimental: Fresh blood was mixed well with blood buffer (blood dilution ratio of 1:3 after concentration). […] The tubes were each centrifuged at 1550 rpm for 30 min after balancing. The PBMCs in the middle buffy coat layer were pipetted. The blood buffer was added in a volume ratio of cells to blood buffer of 1:4. The resulting mixture was well mixed and centrifuged at 950 rpm for 15 min, and the supernatant was discarded. 20 mL of the blood buffer was added to resuspend PBMCs. The resulting suspension was centrifuged, and the supernatant was discarded. Centrifugation was performed, followed by two washings. […] Centrifugation was performed and the supernatant was discarded. […] 500 μL of 1% PBSA was added to each tube, followed by centrifugation at 5600 rpm for 5 min. The supernatant was discarded. 100 μL of the antibody with a corresponding concentration was added (final concentrations: 300, 100, 10, 1, 0.1, 0.01, 0.001 nM) to each tube, and a Blank (PBSA+ cells) and an isotype control were designed, followed by incubation on ice for 1 h. […] 200 μL of 1% washing buffer was added to each tube to resuspend the cells, and fluorescence signals were detected with FITC channel on a flow cytometer. The results were analyzed using Flowing software, and curve fittings were performed separately using MFI and sample concentration on GraphPad prism 5 to calculate EC50.

Assay [2] deals with T1, CD47 on the cell membrane surface of …. The experiment in a line: flow cytometry on Raji cells.
The target is the same in assay [3]. Put plainly: flow cytometry on LOVO cells.
Experimental: The cell pellets were resuspended in 500 μL of 1% PBSA and counted, and the viability was determined. The cells were transferred to 1.5 mL tubes according to 3.0×10⁵ cells/500 μL/tube, and centrifuged at 5600 rpm for 5 min, and the supernatant was discarded. […] Then 500 μL of 1% PBSA was added, followed by centrifugation at 5600 rpm for 5 min, and the supernatant was discarded. 100 μL of FITC goat anti-human IgG (1:500) was added to each tube, and the mixtures were well mixed and incubated on ice for 30 min in the dark. 500 μL of 1% PBSA was added, followed by centrifugation at 5600 rpm for 5 min, and the supernatant was discarded. 200 μL of 1% PBSA was added to each tube to resuspend the cells, and the suspensions were transferred to flow cytometry tubes and detected by a flow cytometer BD FACSCalibur. The results were analyzed using Flowing software, and curve fittings were performed separately using MFI and sample concentration on GraphPad prism 5 to calculate EC50.
Assay [4] has the same target. The experiment in a line: flow cytometry competition vs SIRPα-ECD-mFc on LOVO cells.
For assay [5] the target is unchanged. Put plainly: flow cytometry competition vs SIRPα-ECD-mFc 20 nM on Raji cells.
Experimental: Raji cells in the log phase were routinely collected, centrifuged and washed. The cell pellets were resuspended in 1% PBSA and counted, and the viability was determined. The cell concentration was adjusted with 1% PBSA into a suitable range, and the cells were transferred in groups into 1.5 mL tubes at 500 μL per tube, for a total of 0.3 million cells. The cells were centrifuged at 5600 rpm for 5 min, and the supernatant was discarded. The antibody serially diluted was added (final concentrations in descending order: 1, 0.3, 0.1, 0.01, 0.001, 0.0001 nM), and a blank control (100 μL of 1% PBSA+ cells) and an isotype control (human hIgG) were set up, followed by incubation on ice for 30 min. […] 1% PBSA was added, followed by centrifugation at 5600 rpm for 5 min, and the supernatant was discarded. 100 μL of FITC goat anti-mouse IgG (1:500 dilution) was added to each tube, followed by incubation on ice for 40 min in the dark. 500 μL of 1% PBSA was added, followed by centrifugation at 5600 rpm for 5 min, and the supernatant was discarded. 200 μL of 1% PBSA was added to resuspend the cell pellets. Fluorescence signals were detected with FITC channel on a flow cytometer.
Assay [6] concerns the target T2, human CD47 IgV TEV-His (human, UniProt Q08722 19-141).
T2 construct: range 19-141; Recombinant fusion protein synthesized by Akeso; residue numbers count on NP_942088.1; not shown: his tag
The experiment in a line: Biacore SPR, CD47 IgV-TEV-His amine-coupled to chip, antibody 0.78-12.5 nM, 1:1 model. A general note: Surface plasmon resonance follows binding to a sensor surface in real time, without labels.

The target of assay [7] is T2, human CD47 IgV TEV-His. The experiment in a line: competitive ELISA vs SIRPα ECD-hFc-Biotin 0.1 ug/mL on coated CD47 IgV TEV-His (blocking EC50). In general terms: ELISA stands for enzyme-linked immunosorbent assay.
Experimental: (§1) Experimental procedures: A microplate was coated with 2 μg/mL human CD47 IgV TEV-His at 50 μL per well and incubated at 4° C. for 16 h. The microplate was washed once and tapped dry, blocked with 1% BSA (in PBS) at 300 μL per well, incubated at 37° C. for 2 h, and washed three times and tapped dry. […] Two duplicate wells were set for the above concentrations, with a final volume of 50 μL per well, and the plate was incubated for 10 min. […] The microplate was washed three times and tapped dry. 50 μL of SA-HRP (KPL, 14-30-00) working solution was added to each well, and the microplate was incubated at 37° C. for 30 min. The microplate was washed four times and tapped dry. 50 μL of TMB chromogenic solution was added to each well for color developing for 5 min at room temperature in the dark, and then the color development was terminated by adding 50 μL of stop solution to each well. Then the microplate was put into a microplate reader immediately, and the OD value of each well in the microplate was read at 450 nm. The data were analyzed and processed by SoftMax Pro 6.2.1.
In assay [8] the target is T1, CD47 on the cell membrane surface of …. Put plainly: flow cytometry on Raji cells. The source holds these as a separate data set.
Experimental: Raji cells in the log phase were collected, centrifuged, and washed. The cell pellets were resuspended in 1% PBSA and counted, and the viability was determined. The cells were transferred to 1.5 mL tubes according to 3.0×10⁵ cells/500 μL/tube, and centrifuged at 5600 rpm for 5 min, and the supernatant was discarded. 100 μL of the corresponding antibody serially diluted was added to each tube according to the experimental design, and a blank group (PBSA+ cells) and an isotype control (hIgG) group were designed, followed by incubation on ice for 1 h. Then 1% PBSA was added, followed by centrifugation at 5600 rpm for 5 min, and the supernatant was discarded. 100 μL of FITC goat anti-human IgG (1:500) was added to each tube, and the mixtures were well mixed and incubated on ice for 30 min in the dark. 500 μL of 1% PBSA was added, followed by centrifugation at 5600 rpm for 5 min, and the supernatant was discarded. 1% PBSA was added to each tube to resuspend the cells, and fluorescence signals were detected with FITC channel on a flow cytometer. Curve fittings were performed separately using MFI and sample concentration to calculate EC50.
In assay [9] the target is T2, human CD47 IgV TEV-His. The experiment in a line: indirect ELISA, coated CD47 IgV TEV-His 2 ug/mL.
Experimental: Experimental procedures: A microplate was coated with 2 μg/mL human CD47 IgV TEV-His and incubated at 4° C. for 12 h. The antigen-coated microplate was rinsed 3 times with PBS, and then blocked with 1% BSA in PBS for 2 h. The microplate was rinsed 3 times with PBS. The antibody serially diluted with PBST solution was added into the wells of the microplate, the dilution gradients for the antibody detailed in Table 2. The microplate containing the test antibody was incubated at 37° C. for 30 min, and then washed 3 times with PBST. […] The microplate was washed 3 times with PBST. […] Then the microplate was put into a microplate reader immediately, and the OD value of each well in the microplate was read at 450 nm. The data were analyzed by SoftMax Pro 6.2.1.
For assay [10], the target named is T1, CD47 on the cell membrane surface of …. Put plainly: flow cytometry competition vs SIRPα-mFc 20 nM on LOVO cells.
Experimental: The cell pellets were resuspended in 1% PBSA and counted, and the viability was determined. The cell concentration was adjusted with 1% PBSA into a suitable range, and the cells were transferred in groups into 1.5 mL tubes at 500 μL per tube, for a total of 0.3 million cells. The cells were centrifuged at 5600 rpm for 5 min, and the supernatant was discarded. The antibody serially diluted was added (final concentrations in descending order: 300, 100, 10, 1, 0.3, 0.1, 0.01, 0.001, 0.0001 nM), and a blank control (100 μL of 1% PBSA+ cells) and an isotype control (human hIgG) were set up, followed by incubation on ice for 30 min. […] 1% PBSA was added, followed by centrifugation at 5600 rpm for 5 min, and the supernatant was discarded. 100 μL of FITC goat anti-mouse IgG (1:500 dilution) was added to each tube, followed by incubation on ice for 40 min in the dark. 1% PBSA was added, followed by centrifugation at 5600 rpm for 5 min, and the supernatant was discarded. 200 μL of 1% PBSA was added to resuspend the cell pellets, and the suspensions were transferred to flow cytometry tubes. Fluorescence signals were detected with FITC channel on a flow cytometer. Curve fittings were performed separately using MFI and sample concentration to calculate EC50.
The target in assay [11] is T2, human CD47 IgV TEV-His. Put plainly: competitive ELISA vs SIRPα ECD-hFc-Biotin 0.1 ug/mL on coated CD47 IgV TEV-His (blocking EC50). The source holds these as a separate data set.
Experimental: as §1
Assay [12] concerns the target T2, human CD47 IgV TEV-His. Put plainly: Fortebio BLI, antibody amine-coupled to AR2G sensor, antigen 3.125-100 nM.
Text: The sensor was equilibrated in PBST for 300 s. […] The antigen and the antibody were subjected to dissociation in PBST for 600 s.

B1: 6F7 H1L1(hG4) (antibody, human IgG4, kappa)
heavy: not shown
light: NIVMTQSPATMSMSPGERVTLSCRASEIVGTYVSWFQQKPGQAPRLLIYGASNRYTGVPARFSGSGSGTDFTLTISSVQPEDLADYHCGQSYNFPYTFGGGTKLEIKRTVAAPSVFIFPPSDEQLKSGTASVVCLLNNFYPREAKVQWKVDNALQSGNSQESVTEQDSKDSTYSLSSTLTLSKADYEKHKVYACEVTHQGLSSPVTKSFNRGEC
notes: Humanized 6F7
On to B1, for which the EC50 (in general, the concentration at which the effect is half-maximal) in assay [1] is 600 pM; in assay [2] it was 320 pM; in assay [3], 20 pM; in assay [4] it was 100 pM; in assay [5], 17 pM; with human CD47 IgV TEV-His [7] it was 194 pM. Besides, the Kd – broadly, a measure of binding affinity in units of concentration – with human CD47 IgV TEV-His [6] was 152 pM.

B2: 6F7 H1L1(G1M) (antibody, human IgG1, kappa, L234A L235A)
heavy: not shown
light: NIVMTQSPATMSMSPGERVTLSCRASEIVGTYVSWFQQKPGQAPRLLIYGASNRYTGVPARFSGSGSGTDFTLTISSVQPEDLADYHCGQSYNFPYTFGGGTKLEIKRTVAAPSVFIFPPSDEQLKSGTASVVCLLNNFYPREAKVQWKVDNALQSGNSQESVTEQDSKDSTYSLSSTLTLSKADYEKHKVYACEVTHQGLSSPVTKSFNRGEC
notes: Humanized 6F7; also called 6F7 H1L1(hG1DM)
For B2, the EC50 came out at 13 pM in assay [8], 37 pM with human CD47 IgV TEV-His [9], 160 pM in assay [10] and 274 pM with human CD47 IgV TEV-His [11].

B3: murine antibody 6F7 (antibody, V domains shown)
VH: QVQLQQPGAELVRPGASVKLSCKASGYTFTSYWMNWVKQRPGQGLEWIGMIDPSDSETHNNQMFKDKATLTVDKSSNTAYMHLSSLTSEDSAVYHCARLYRWYFDVWGAGTTVTVSS
VL: NIVMTQSPKSMSMSLGERVTLSCKASEIVGTYVSWFQQKPHQSPKLLIYGASNRYTGVPDRFTGSGSATDFTLTISNVQAEDLADYHCGQSYNFPYTFGGGTKLEIK
notes: Murine hybridoma antibody purified on protein A; also called monoclonal antibody secreted by hybridoma cell line LT012 (CD47-6F7)
For the molecule B3, in the assay with human CD47 IgV TEV-His [12], binding was put at a Kd of 652 pM; the koff (commonly a measure of how fast the partners let go of each other) came out at 0.000256 s⁻¹; the kon (as a rule, the second-order rate constant of association) is 393000 M⁻¹ s⁻¹.
